Laboratory results: patent publication CN114751980A (XIAMEN BOANG BIOTECHNOLOGY CO LTD, dated 2022)

Molecular target: T1, 重组N蛋白 (新冠病毒 (SARS-CoV-2), UniProt P0DTC9 1-419)
T1 construct: also called 新冠病毒N蛋白
Assay: indirect ELISA

B1: 单抗阻断剂A3-4 (antibody, V domains shown)
VH: EVQLEESGGGLVQPGGSRKLSCIASGIIFHNFGMHWIRQAPEKGLEWVAYISGLSRNISYADTVKGRFTISRDNPKNTLFLQMTSLRSEDTAMYYCSRGWAYDAAFWGQGTLVTVS
VL: DVVMTQTPLTLSVTIGQPASFSCKSSRSLLSSNGKIYLNWLLQRPGQSPKRLIYLVSKLDSGVPDRFTGSGSGTDFTLQINRVEAEDLGVYYCVQGTHFPLTFGAGTKLELKR
notes: also called 新冠病毒检测用单抗阻断剂
B1: no binding.
